Molecular target: T1, p52 (NF-kB2) (human, UniProt Q00653 1-408)
T1 sequence: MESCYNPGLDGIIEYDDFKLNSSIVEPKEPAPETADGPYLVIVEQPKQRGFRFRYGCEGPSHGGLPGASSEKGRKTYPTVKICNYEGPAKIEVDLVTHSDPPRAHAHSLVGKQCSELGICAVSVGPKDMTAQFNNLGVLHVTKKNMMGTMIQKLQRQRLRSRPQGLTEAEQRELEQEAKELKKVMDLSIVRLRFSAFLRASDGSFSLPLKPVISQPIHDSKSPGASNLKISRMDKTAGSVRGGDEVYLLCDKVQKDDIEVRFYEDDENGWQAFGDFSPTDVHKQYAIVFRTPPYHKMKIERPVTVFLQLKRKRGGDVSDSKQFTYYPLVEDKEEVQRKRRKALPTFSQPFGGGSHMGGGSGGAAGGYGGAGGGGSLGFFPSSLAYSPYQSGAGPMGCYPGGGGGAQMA
Assay: EMSA

B1: P-selectin kB (A/T) (dsDNA)
DNA 1: TCGACGGAAGGGGGTAACCCCTTGGG
DNA 2: GATCCCCAAGGGGTTACCCCCTTCCG
B1: binds.

From publication PMC4167904
